The record followed here is PMC10497414.

Read-outs that look alike come from different tables or passages of the source.

The Kd is a measure of binding affinity in units of concentration.

For assay [1], the target named is human NKp46 (Gln22-Asn255) (Homo sapiens) (UniProt O76036).
Target sequence in this assay (O76036 22-255): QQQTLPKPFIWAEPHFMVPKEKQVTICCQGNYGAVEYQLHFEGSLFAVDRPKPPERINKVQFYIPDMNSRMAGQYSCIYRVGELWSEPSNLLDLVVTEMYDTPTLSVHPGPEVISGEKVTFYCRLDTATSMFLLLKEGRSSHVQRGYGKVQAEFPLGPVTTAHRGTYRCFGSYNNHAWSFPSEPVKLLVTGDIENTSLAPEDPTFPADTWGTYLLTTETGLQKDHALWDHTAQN
The target is the same in assay [2]. Description: SPR; Biacore T200, CM5 chip, 25 °C; CD123-NKCE (0.06 µg/ml) captured on anti-human Fc chip (human antibody capture kit); NKp46 or CD123 injected at 1.56 to 100 nM in HBS-EP+; 1:1 binding model with mass transport limitation; monovalent KD. (In SPR one partner is held on a chip, and binding of the other changes the refractive index at the surface.)
For assay [3], the target named is recombinant human CD123 (Homo sapiens) (UniProt P26951). The description is as above.
Assay [4] deals with cynomolgus CD16 (cynomolgus) (UniProt Q8SPW2). Briefly: SPR.
For assay [5], the target named is cynomolgus CD32a (cynomolgus) (UniProt Q8SPW4). Briefly: SPR.
Assay [6] addresses cynomolgus CD32b (cynomolgus) (UniProt Q8SPW3). Briefly: SPR.
Assay [7] addresses cynomolgus CD64 (cynomolgus) (UniProt Q8SPW5). Description: SPR.
Assay [8] addresses cynomolgus FcRn (cynomolgus) (UniProt Q8SPV9). Description: SPR.
In assay [9] the target is human CD16a (human FcγRIIIA), F isoform (human) (UniProt P08637). Briefly: SPR.
For assay [10], the target named is human CD16a (human FcγRIIIA), V isoform (human) (UniProt P08637). Description: SPR.
The target of assay [11] is human CD16b (human FcγRIIIB) (human) (UniProt O75015). Briefly: SPR.
The target in assay [12] is human CD32a (human FcγRIIA) (human) (UniProt P12318). Briefly: SPR.
Assay [13] addresses human CD32b (human FcγRIIB) (human) (UniProt P31994). Description: SPR.
Assay [14] has as its target human CD64 (human FcγRI) (human) (UniProt P12314). Briefly: SPR.
The next assay addresses cynomolgus CD123. Description: SPR. The note with it: bispecific antibody.
Assay [15] addresses cynomolgus NKp46 (Gln17-Asn254) (cynomolgus) (UniProt Q95JB9). Briefly: SPR. As to conditions: bispecific antibody.
Assay [16] addresses human neonatal Fc receptor (human) (UniProt P55899). Briefly: SPR. The note with it: bispecific antibody.

human CD16b (human FcγRIIIB) (human), sequence (O75015 17-200): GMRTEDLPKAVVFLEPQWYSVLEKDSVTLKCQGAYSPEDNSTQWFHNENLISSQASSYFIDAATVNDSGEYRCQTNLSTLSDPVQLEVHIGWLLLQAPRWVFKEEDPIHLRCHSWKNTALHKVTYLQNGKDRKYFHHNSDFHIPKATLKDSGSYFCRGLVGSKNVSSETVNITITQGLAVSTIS
human CD64 (human FcγRI) (human), sequence (P12314 16-374): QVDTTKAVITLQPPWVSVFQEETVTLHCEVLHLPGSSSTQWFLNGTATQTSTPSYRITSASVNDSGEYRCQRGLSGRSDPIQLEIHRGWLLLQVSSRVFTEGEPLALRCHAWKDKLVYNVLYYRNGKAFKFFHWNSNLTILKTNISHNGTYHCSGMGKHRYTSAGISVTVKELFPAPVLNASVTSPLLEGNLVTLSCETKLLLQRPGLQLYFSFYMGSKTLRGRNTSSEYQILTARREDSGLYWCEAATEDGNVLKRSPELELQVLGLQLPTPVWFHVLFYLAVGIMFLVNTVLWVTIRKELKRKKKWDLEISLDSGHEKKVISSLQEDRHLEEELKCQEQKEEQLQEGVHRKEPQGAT
human CD16a (human FcγRIIIA), V isoform (human), sequence (P08637 17-208 F176V): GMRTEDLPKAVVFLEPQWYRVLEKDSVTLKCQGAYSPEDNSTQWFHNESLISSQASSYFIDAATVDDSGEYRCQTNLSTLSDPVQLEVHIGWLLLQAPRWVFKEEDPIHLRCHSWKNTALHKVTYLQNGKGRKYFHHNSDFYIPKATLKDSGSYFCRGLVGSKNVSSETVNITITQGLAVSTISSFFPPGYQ
human CD32a (human FcγRIIA) (human), sequence (P12318 34-317): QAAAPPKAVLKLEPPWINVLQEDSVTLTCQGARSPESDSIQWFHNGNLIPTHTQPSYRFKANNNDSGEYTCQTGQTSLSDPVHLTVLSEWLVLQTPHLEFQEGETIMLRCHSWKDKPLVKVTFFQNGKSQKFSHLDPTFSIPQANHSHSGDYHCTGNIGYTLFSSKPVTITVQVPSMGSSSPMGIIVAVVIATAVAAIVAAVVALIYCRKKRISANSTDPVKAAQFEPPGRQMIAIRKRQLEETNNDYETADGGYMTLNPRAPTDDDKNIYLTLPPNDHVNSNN
cynomolgus FcRn (cynomolgus), sequence (Q8SPV9 24-365): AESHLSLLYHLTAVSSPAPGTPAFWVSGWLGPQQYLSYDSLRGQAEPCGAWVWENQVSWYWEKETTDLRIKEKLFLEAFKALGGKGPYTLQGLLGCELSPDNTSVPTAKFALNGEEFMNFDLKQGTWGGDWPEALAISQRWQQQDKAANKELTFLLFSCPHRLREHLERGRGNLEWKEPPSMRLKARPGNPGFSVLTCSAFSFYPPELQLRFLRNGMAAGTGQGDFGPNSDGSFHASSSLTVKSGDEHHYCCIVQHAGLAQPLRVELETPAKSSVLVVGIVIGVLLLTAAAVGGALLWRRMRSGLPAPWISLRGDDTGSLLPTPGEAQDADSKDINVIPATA
cynomolgus CD16 (cynomolgus), sequence (Q8SPW2 17-254): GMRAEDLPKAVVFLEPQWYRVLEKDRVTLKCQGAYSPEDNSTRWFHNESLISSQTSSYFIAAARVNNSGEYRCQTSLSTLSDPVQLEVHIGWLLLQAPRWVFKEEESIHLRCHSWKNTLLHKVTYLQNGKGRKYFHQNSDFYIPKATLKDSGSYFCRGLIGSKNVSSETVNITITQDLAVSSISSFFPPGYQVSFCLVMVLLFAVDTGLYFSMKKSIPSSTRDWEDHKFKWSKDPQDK
human CD32b (human FcγRIIB) (human), sequence (P31994 43-310): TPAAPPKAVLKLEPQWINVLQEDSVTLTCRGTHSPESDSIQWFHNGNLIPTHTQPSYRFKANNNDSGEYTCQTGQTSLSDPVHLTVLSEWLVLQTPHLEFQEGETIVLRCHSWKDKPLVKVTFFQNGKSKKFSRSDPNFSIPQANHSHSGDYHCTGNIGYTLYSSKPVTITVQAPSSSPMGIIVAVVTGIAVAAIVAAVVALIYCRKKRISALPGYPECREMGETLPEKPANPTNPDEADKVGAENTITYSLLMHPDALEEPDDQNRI
human CD16a (human FcγRIIIA), F isoform (human), sequence (P08637 17-208): as the sequence (P08637 17-208 F176V) above, with V160F counted along it
cynomolgus NKp46 (Gln17-Asn254) (cynomolgus), sequence (Q95JB9 17-254): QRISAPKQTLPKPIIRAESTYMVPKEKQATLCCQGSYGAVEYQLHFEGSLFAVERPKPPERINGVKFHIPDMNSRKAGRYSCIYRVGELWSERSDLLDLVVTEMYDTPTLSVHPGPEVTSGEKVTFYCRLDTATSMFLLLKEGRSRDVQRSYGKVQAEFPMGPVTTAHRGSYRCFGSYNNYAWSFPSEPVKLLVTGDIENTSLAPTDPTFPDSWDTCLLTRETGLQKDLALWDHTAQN
human neonatal Fc receptor (human), sequence (P55899 24-365): as the sequence (Q8SPV9 24-365) above, with D39N, Q44E, S99G, G189S, N190S, M217L, T269S, S319V, S332L, I335V counted along it

As for “CD123-NKCE (trifunctional NKp46-CD16a-NK cell engager targeting CD123) (bispecific antibody)”, in assay [1], the NK cell-mediated cytotoxicity (Cr-51 release) against MOLM-13 cells with NK cells from healthy donors, geometric mean EC50; NKp46 and CD16a coengaged came out at 0.0042 nM; the NK cell-mediated cytotoxicity (Cr-51 release) against MOLM-13 cells with NK cells from healthy donors, mean observed maximum specific lysis; NKp46 and CD16a coengaged was 71%. Also, in [2], the Kd is 16.6 nM. Further, in [3], the Kd was 0.4 nM.

Take Human IgG1 control: the Kd in assay [4] was determined as 580 nM; in assay [5], 6340 nM; in [6], 2320 nM; in assay [7], 18 nM; in assay [8] it was 237 nM; in assay [9] it was 2820 nM. For the same substance, the Kd in assay [10] was determined as 575 nM; in assay [11], 7540 nM; in assay [12], 1570 nM; in assay [13] it was 4230 nM; in assay [14], 0.2 nM.

For “CD123-NKCE (trifunctional NKp46-CD16a-NK cell engager targeting CD123)”, the Kd in the assay with cynomolgus CD123 stood at 1.23 nM; in assay [4] (bispecific antibody) it was 466 nM; in assay [5] (bispecific antibody), 5180 nM; in assay [6] (bispecific antibody) it was 1890 nM; in [7] (bispecific antibody), 12 nM; in assay [8] (bispecific antibody) it was 282 nM. In addition, the equilibrium dissociation constant (Kd) in assay [15] was found to be 29 nM; in [9] (bispecific antibody), 2610 nM; in assay [10] (bispecific antibody) it was 462 nM; in assay [11] (bispecific antibody), 6690 nM; in assay [12] (bispecific antibody), 1220 nM; in [13] (bispecific antibody), 3200 nM. The dissociation constant (Kd) was 0.2 nM in [14] (bispecific antibody) and 109 nM in [16].
